In patent CN111606996A:

Target: 4D5 CAR on NK92-4D5-Canada cells
Assay: flow cytometry on NK92-4D5-Canada cells, 2μg 5D1 + BV421 goat anti-mouse

B1: 靶向4D5的鼠源单克隆抗体5D1 (antibody, V domains shown)
VH: QVQLEQSGAEFVRPGALVRLSCKASGFNIKDYYIHWVKQRPEQGLEWIGWIYPENDDTIYDPKFQGKASLTADTSSNTAYLQLSSLTSEDSAVYFCVRSGSDSSFDYWGQGTTLTVSS
VL: DIVMTQSTASLAVSLGQRATISCRASESVDSYDNSFMHWFQQKPGQPPKLLIYLASNLESGVPARFSGSGSRTDFTLTIDPVEADDAATYYCQQNNEDPFTFGSGTKLEIKR
Work on B1 yielded a 阳性细胞数在总细胞中占比 of 60.2%.
